Literature values in publication PMC8688582.

Molecular target: CD25 (Homo sapiens) (UniProt P01589)
Test: ITC

UniProt P01589, sequence (P01589 22-240): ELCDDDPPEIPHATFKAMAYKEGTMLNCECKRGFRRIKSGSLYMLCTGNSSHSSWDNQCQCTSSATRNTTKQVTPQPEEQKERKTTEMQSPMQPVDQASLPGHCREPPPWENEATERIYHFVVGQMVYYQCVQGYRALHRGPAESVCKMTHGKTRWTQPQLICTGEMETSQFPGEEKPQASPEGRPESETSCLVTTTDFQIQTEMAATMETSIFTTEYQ

Kd: 10 nM
Substance: IL-2 (from UniProt P60568)
